B1: PTPN9 (parent)
chain: TQHLPRECLPENLGGYVKIDLATW
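Note: lentivirally expressed fusions sorted by FACS into six bins by GFP to DsRed ratio, PSI derived from sequencing read proportions per bin multiplied by bin number.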

Variants of: B1
Assay: protein stability index of a GFP-peptide fusion (GPS, HEK-293T) (PSI 1-6); higher = more stable
Conditions: c terminus: a fixed tail appended
TQHLPAECLPENLGGYVKIDLATW showed a protein stability index of 2.08.
Work on TQHLPCECLPENLGGYVKIDLATW yielded a protein stability index of 1.69.
For TQHLPDECLPENLGGYVKIDLATW, the protein stability index was 2.52.
For TQHLPEECLPENLGGYVKIDLATW, the protein stability index was 2.27.
With TQHLPFECLPENLGGYVKIDLATW the protein stability index was 1.81.
With TQHLPGECLPENLGGYVKIDLATW the protein stability index was 2.51.
TQHLPHECLPENLGGYVKIDLATW gave a protein stability index of 1.63.
For TQHLPIECLPENLGGYVKIDLATW, the protein stability index was 1.99.
For TQHLPKECLPENLGGYVKIDLATW, the protein stability index was 2.2.
For TQHLPLECLPENLGGYVKIDLATW, the protein stability index was 1.49.
For TQHLPMECLPENLGGYVKIDLATW, the protein stability index was 2.16.
TQHLPNECLPENLGGYVKIDLATW gave a protein stability index of 1.98.
Work on TQHLPPECLPENLGGYVKIDLATW yielded a protein stability index of 2.24.
For TQHLPQECLPENLGGYVKIDLATW, the protein stability index was 2.31.
Work on TQHLPSECLPENLGGYVKIDLATW yielded a protein stability index of 2.18.
In the case of TQHLPTECLPENLGGYVKIDLATW, the protein stability index is reported as 2.2.
Variant TQHLPVECLPENLGGYVKIDLATW has a protein stability index of 2.26.
Work on TQHLPWECLPENLGGYVKIDLATW yielded a protein stability index of 1.57.
TQHLPYECLPENLGGYVKIDLATW showed a protein stability index of 1.69.
TQHLPRACLPENLGGYVKIDLATW gave a protein stability index of 1.82.
TQHLPRCCLPENLGGYVKIDLATW showed a protein stability index of 2.49.
For TQHLPRDCLPENLGGYVKIDLATW, the protein stability index was 2.2.
For TQHLPRFCLPENLGGYVKIDLATW, the protein stability index was 1.74.
TQHLPRGCLPENLGGYVKIDLATW showed a protein stability index of 1.62.
For TQHLPRHCLPENLGGYVKIDLATW, the protein stability index was 1.85.
Work on TQHLPRICLPENLGGYVKIDLATW yielded a protein stability index of 2.52.
For TQHLPRKCLPENLGGYVKIDLATW, the protein stability index was 1.52.
In the case of TQHLPRLCLPENLGGYVKIDLATW, the protein stability index is reported as 2.25.
TQHLPRMCLPENLGGYVKIDLATW showed a protein stability index of 2.33.
TQHLPRNCLPENLGGYVKIDLATW showed a protein stability index of 1.86.
For TQHLPRPCLPENLGGYVKIDLATW, the protein stability index was 2.52.
For TQHLPRQCLPENLGGYVKIDLATW, the protein stability index was 1.63.
Work on TQHLPRRCLPENLGGYVKIDLATW yielded a protein stability index of 2.5.
For TQHLPRSCLPENLGGYVKIDLATW, the protein stability index was 1.94.
For TQHLPRTCLPENLGGYVKIDLATW, the protein stability index was 1.42.
TQHLPRVCLPENLGGYVKIDLATW showed a protein stability index of 2.22.
Work on TQHLPRWCLPENLGGYVKIDLATW yielded a protein stability index of 1.93.
For TQHLPRYCLPENLGGYVKIDLATW, the protein stability index was 2.19.
For TQHLPREALPENLGGYVKIDLATW, the protein stability index was 2.16.
Work on TQHLPREDLPENLGGYVKIDLATW yielded a protein stability index of 2.48.
Work on TQHLPREELPENLGGYVKIDLATW yielded a protein stability index of 2.24.
In the case of TQHLPREFLPENLGGYVKIDLATW, the protein stability index is reported as 2.3.
TQHLPREGLPENLGGYVKIDLATW showed a protein stability index of 1.78.
In the case of TQHLPREHLPENLGGYVKIDLATW, the protein stability index is reported as 2.56.
For TQHLPREILPENLGGYVKIDLATW, the protein stability index was 1.7.
For TQHLPREKLPENLGGYVKIDLATW, the protein stability index was 1.93.
In the case of TQHLPRELLPENLGGYVKIDLATW, the protein stability index is reported as 1.8.
Work on TQHLPREMLPENLGGYVKIDLATW yielded a protein stability index of 1.81.
TQHLPRENLPENLGGYVKIDLATW gave a protein stability index of 2.15.
TQHLPREPLPENLGGYVKIDLATW showed a protein stability index of 2.16.
Variant TQHLPREQLPENLGGYVKIDLATW has a protein stability index of 2.29.
TQHLPRERLPENLGGYVKIDLATW gave a protein stability index of 1.69.
In the case of TQHLPRESLPENLGGYVKIDLATW, the protein stability index is reported as 2.04.
TQHLPRETLPENLGGYVKIDLATW gave a protein stability index of 2.19.
In the case of TQHLPREVLPENLGGYVKIDLATW, the protein stability index is reported as 2.02.
For TQHLPREWLPENLGGYVKIDLATW, the protein stability index was 1.72.
Variant TQHLPREYLPENLGGYVKIDLATW has a protein stability index of 2.11.
Variant TQHLPRECAPENLGGYVKIDLATW has a protein stability index of 2.55.
TQHLPRECCPENLGGYVKIDLATW gave a protein stability index of 1.73.
Variant TQHLPRECDPENLGGYVKIDLATW has a protein stability index of 2.24.
Variant TQHLPRECEPENLGGYVKIDLATW has a protein stability index of 2.22.
For TQHLPRECFPENLGGYVKIDLATW, the protein stability index was 1.94.
Variant TQHLPRECGPENLGGYVKIDLATW has a protein stability index of 1.61.
With TQHLPRECHPENLGGYVKIDLATW the protein stability index was 1.73.
TQHLPRECIPENLGGYVKIDLATW showed a protein stability index of 1.85.
Work on TQHLPRECKPENLGGYVKIDLATW yielded a protein stability index of 2.47.
TQHLPRECMPENLGGYVKIDLATW gave a protein stability index of 2.03.
Work on TQHLPRECNPENLGGYVKIDLATW yielded a protein stability index of 1.97.
For TQHLPRECPPENLGGYVKIDLATW, the protein stability index was 2.18.
In the case of TQHLPRECQPENLGGYVKIDLATW, the protein stability index is reported as 2.01.
Variant TQHLPRECRPENLGGYVKIDLATW has a protein stability index of 1.77.
In the case of TQHLPRECSPENLGGYVKIDLATW, the protein stability index is reported as 1.75.
In the case of TQHLPRECTPENLGGYVKIDLATW, the protein stability index is reported as 2.01.
TQHLPRECVPENLGGYVKIDLATW gave a protein stability index of 1.65.
TQHLPRECWPENLGGYVKIDLATW showed a protein stability index of 1.9.
TQHLPRECYPENLGGYVKIDLATW showed a protein stability index of 1.97.
TQHLPRECLAENLGGYVKIDLATW gave a protein stability index of 1.64.
In the case of TQHLPRECLCENLGGYVKIDLATW, the protein stability index is reported as 1.8.
TQHLPRECLDENLGGYVKIDLATW showed a protein stability index of 1.88.
TQHLPRECLEENLGGYVKIDLATW showed a protein stability index of 2.44.
TQHLPRECLFENLGGYVKIDLATW showed a protein stability index of 1.97.
TQHLPRECLGENLGGYVKIDLATW gave a protein stability index of 1.72.
For TQHLPRECLHENLGGYVKIDLATW, the protein stability index was 1.91.
TQHLPRECLIENLGGYVKIDLATW gave a protein stability index of 1.61.
In the case of TQHLPRECLKENLGGYVKIDLATW, the protein stability index is reported as 1.77.
TQHLPRECLLENLGGYVKIDLATW showed a protein stability index of 1.55.
For TQHLPRECLMENLGGYVKIDLATW, the protein stability index was 2.04.
In the case of TQHLPRECLNENLGGYVKIDLATW, the protein stability index is reported as 2.23.
For TQHLPRECLQENLGGYVKIDLATW, the protein stability index was 1.6.
With TQHLPRECLRENLGGYVKIDLATW the protein stability index was 2.24.
With TQHLPRECLSENLGGYVKIDLATW the protein stability index was 2.49.
In the case of TQHLPRECLTENLGGYVKIDLATW, the protein stability index is reported as 1.62.
In the case of TQHLPRECLVENLGGYVKIDLATW, the protein stability index is reported as 1.82.
In the case of TQHLPRECLWENLGGYVKIDLATW, the protein stability index is reported as 1.85.
